Data: patent US20080227700A1, “Compositions and Methods for Treatment of Protein Misfolding and Protein Aggregation Diseases” (priority 2004, published 2008)

Columns and labels:
Aβ = Aβ (Homo sapiens, UniProt P05067); assay: Aβ ThioflavinT fluorescence (fibrillization of Aβ); format: biochemical; conditions: 1:10 Aβ:peptide; for effect on the fibrillization of Aβ: ThioflavinT fluorescence after 72 hrs, comparison among αB crystallin and five peptides
Protocol: Aβ Thioflaviin T fluorescence. Aβ fibrils were grown in the presence and absence of αB crystallin and peptides in conditions similar to that previously described for the presence of αB crystallin. Bakthisaran et al., Biochem J, 2005. Peptides were dissolved to 9.1 mM in trifluorethanol (TFE) and diluted to 0.91 mM stock solutions in 50 mM PBS, 100 mM NaCl, pH 7.4. 3.5 mg of ThioflavinT was dissolved in 100 μl of 50 mM Glycine pH 8.5. A stock solution of 1 mg/ml (0.22 mM) Aβ was prepared. 20 μl Aβ, 50 μl chaperone, 2 μl ThioflavinT was mixed with 28 μl 50 mM PBS, 100 mM NaCl, pH 7.4. Fluorescence was read using a Beckman Coultier DTX 880 multimode detector. Samples were heated at 50° C. for 72 hours and fluorescence was read again.
(§1) The fibrillization of Aβ was measured as fluorescence of the fluorescent dye ThioflavinT from solutions containing 1:10 monomeric molar ratio of Aβ:peptide. In the absence of Aβfibrils, ThioflavinT had little or no fluorescence. The fluorescence of the ThioflavinT bound to Aβ fibrils in the absence of any other molecule after 72 hrs was set to 100%. […] Fibril formation=ΔfluorescenceAβ (with chaperone)*100/ΔfluorescenceAβ (without chaperone).

βH crystallin = assay: Chaperone assay, thermal aggregation of βH crystallin; format: biochemical; conditions: 50:1 molar ratio of peptide:βH crystallin; 50° C., sixty minutes; light scattering λ=340 nm; no peptide = 0% protection
Protocol: (§2) The chaperone activity of the peptides was measured as their ability to protect against the thermal aggregation of three chaperone target proteins βH crystallin, ADH and CS in chaperone assays performed at 50° C. (FIG. 19). A non-interactive αB crystallin sequence 111HGKHEERQDE120 was used as the negative control in the chaperone assays (FIG. 19). Based on near and far UVCD, the three target proteins unfolded in the order: CS>>>ADH>>βH crystallin when they were heated at 50° C. for sixty minutes (FIGS. 15 and 16). The thermal aggregation of βH crystallin, ADH and CS was measured as light scattering at λ=340 nm in the presence and absence of each peptide. The chaperone activity of each peptide was calculated as percent protection in which the aggregation of each target protein in the absence of any peptides was set at 0% protection (FIG. 19). The interactive peptides 73DRFSVNLDVKHFS85 and 131LTITSSLSDGV141 were effective inhibitors of aggregation of all three chaperone target proteins.
(§3) A (top left): thermal aggregation of chaperone target proteins βH crystallin, ADH and CS in the absence of peptides was measured as light scattering at λ=340 nm. Each target protein was heated at 50° C. for sixty minutes in the absence or presence of one of the peptides. […] The chaperone activity of each peptide was calculated as percent protection in which the aggregation of each target protein in the absence of any peptides was set at 0% protection. The ability of the 73DRFSVNLDVKHFS85, 131LTITSSLSDGV141 and 111HGKHEERQDE120 to protect against the thermal aggregation of βH crystallin (B: top right), ADH (C: bottom left) and CS (D: bottom right) were tested in vitro (vertical bars). […] A 10:1 molar ratio of peptide:target protein was sufficient in conferring significant protection against the aggregation of CS by 73DRFSVNLDVKHFS85 and 131LTITSSLSDGV141.

ADH = target: T1, ADH (Equus caballus, UniProt P00327); assay: Chaperone assay, thermal aggregation of ADH; format: biochemical; conditions: 50:1 molar ratio of peptide:ADH; 50° C., sixty minutes; light scattering λ=340 nm; no peptide = 0% protection
T1 construct: purchased
Protocol: as §2, §3

βL crystallin = assay: Chaperone assay, thermal aggregation of βL crystallin; format: biochemical; conditions: light scattering at λ=340 nm; 1:10 target protein:peptide; comparison among five peptides
Protocol: Chaperone Assays. Chaperone assays of the five peptides were performed using previously established methods with minor modifications. Muchowski et al., J Mol Biol 289: 397-411, 1999. A 1:1 monomeric molar ratio of chaperone: target protein was determined to be the optimum ratio and all subsequent chaperone assays of the β3 mutants were performed in triplicate and at a 1:1 monomeric molar ratio of chaperone: target protein in a 96-well ELISA micro-titer plate. […] of the chaperone and βL crystallin were mixed in a total volume of 200 μL buffer (5 mM PBS, pH 7.0). Light scattering at λ=340 nm was measured using a Multiskan MCC/340 plate reader before heating (time=0). After the first reading, the plate was heated at 50° C. and readings were taken at fifteen minute intervals for one hour.
The ability of the peptides to suppress the thermal aggregation of βL crystallin was measured spectrophotometrically as light scattering at λ=340 nm from solutions containing 1:10 monomeric molar ratio of target protein: peptide.

amyloid beta (1-42) = amyloid beta (1-42) (Homo sapiens, UniProt P05067); assay: Cu+++-induced aggregation of amyloid-beta (1-42) in vitro, light scattering; format: biochemical; conditions: 100 mM Cu+++, 360 nm; for preventing the Cu+++-induced aggregation of amyloid-beta: 1:1 and 1:10 molar ratio of amyloid-beta to peptide; for preventing the Cu+++ induced aggregation of amyloid-beta: 10:1 molar ratio of amyloid-beta to peptide
Protocol: In vitro assays were also performed to measure the ability of the human αB crystallin derived peptides identified in Example 1 to inhibit aggregation of Cu^+++-induced amyloid beta (1-42) aggregation. Aggregation assays were performed using routine procedures, in the presence or absence of a synthesized peptide identified in Example 1, in the presence of 100 mM Cu^+++. Aggregation was measured spectrophotometrically as light scattering at a wavelength of 360 nm. Aggregated amyloid-beta was assigned a value of 100% aggregation and used to normalize aggregation in the presence of synthesize peptides.
Aggregation was measured spectrophotometrically as light scattering at a wavelength of 360 nm. Aggregated amyloid-beta was assigned a value of 100% aggregation and used to normalize aggregation in the presence of synthesize peptides. Aggregation was plotted as a bar graph with the standard error for duplicate experiments. The 1st vertical bar is the scattering measured for aggregated amyloid-beta (100% aggregation) in the presence of 100 mM Cu^+++. The 2nd-4th vertical bars is the scattering from amyloid-beta in the presence of wild type recombinant human αB crystallin. The 5th-13th vertical bars are the scattering of amyloid-beta in the presence of the synthetic peptides, DRFSVNLDVKHFS or LTITSSLSDGV or HGKHEERQDE at selected concentrations. A prefix of 10× represents a 10:1 molar concentration of amyloid-beta to either wild type αB crystallin or its peptides. A prefix of 1X represents a 1:1 molar concentration of amyloid-beta to either wt αB crystallin or its peptides. A prefix of 0.1× represents a 1:10 molar concentration of amyloid-beta to either wt αB crystallin or its peptides.

[1] = as provided by manufacturer (Mimotopes); cited from earlier work
CS = target: T2, CS (Sus scrofa, UniProt P00889); assay: Chaperone assay, thermal aggregation of CS; format: biochemical; conditions: 10:1 molar ratio of peptide:CS; 50° C., sixty minutes; light scattering λ=340 nm; no peptide = 0% protection
T2 construct: purchased
T2 sequence (P00889 28-464): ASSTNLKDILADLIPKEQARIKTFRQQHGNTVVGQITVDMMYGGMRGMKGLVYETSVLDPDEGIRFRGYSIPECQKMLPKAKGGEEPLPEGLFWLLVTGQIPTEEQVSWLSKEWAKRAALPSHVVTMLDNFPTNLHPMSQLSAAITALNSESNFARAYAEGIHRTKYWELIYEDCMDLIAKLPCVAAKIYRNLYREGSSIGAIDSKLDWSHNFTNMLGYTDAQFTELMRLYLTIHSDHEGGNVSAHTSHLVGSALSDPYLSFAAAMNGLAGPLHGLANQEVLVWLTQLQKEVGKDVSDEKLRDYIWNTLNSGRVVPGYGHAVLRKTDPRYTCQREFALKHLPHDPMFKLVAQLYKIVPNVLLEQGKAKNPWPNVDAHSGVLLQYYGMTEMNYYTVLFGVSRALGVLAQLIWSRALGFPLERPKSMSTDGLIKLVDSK
Protocol: as §2
A (top left): thermal aggregation of chaperone target proteins βH crystallin, ADH and CS in the absence of peptides was measured as light scattering at λ=340 nm. […] The chaperone activity of each peptide was calculated as percent protection in which the aggregation of each target protein in the absence of any peptides was set at 0% protection. […]

γD crystallin = target: T3, γD crystallin (Homo sapiens, UniProt P07320); assay: γD crystallin ThioflavinT fluorescence (fibrillization of γD crystallin); format: biochemical; conditions: ThioflavinT; 50° C. for 72 hours; 1:1 γD crystallin:peptide; no chaperone 888,803,840
T3 sequence (P07320 1-174): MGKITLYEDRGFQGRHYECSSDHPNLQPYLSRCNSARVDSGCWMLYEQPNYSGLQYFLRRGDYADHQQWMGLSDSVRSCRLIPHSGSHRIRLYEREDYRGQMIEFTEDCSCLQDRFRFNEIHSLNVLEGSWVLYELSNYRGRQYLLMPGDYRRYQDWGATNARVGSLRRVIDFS
Protocol: γD crystallin Thioflaviin T fluorescence. γD crystallin fibrils were formed in a similar way to that of γ crystalline. Meehan et al., J Biol Chem 279: 3413-3419, 2004. Peptides were dissolved to […] IN tfe AND DILUTED to 0.91 mM stock solutions in 10% TFE, pH 2.0.
3.5 mg of ThioflavinT was dissolved in 100 μL of 50 mM Glycine pH 8.5. A stock solution of 1 mg/ml (0.22 mM) Aβ was prepared. 20 μl Aβ, 5 μl chaperone, 2 μl ThioflavinT was mixed with 73 μL 10% TFE, pH 2.0. Fluorescence was read using a Beckman Coultier DTX 880 multimode detector. Samples were heated at 50° C. for 72 hours and fluorescence was read again.
as §1, with “γD crystallin” for “Aβ”, “1:1” for “1:10”, “γD crystallin:peptide.” for “Aβ:peptide.”, “fibrils” for “Aβfibrils,”, “formation=ΔfluorescenceγD crystallin” for “formation=ΔfluorescenceAβ”, “chaperone)*100/ΔfluorescenceγD crystallin” for “chaperone)*100/ΔfluorescenceAβ”

T1 sequence (P00327 whole entry): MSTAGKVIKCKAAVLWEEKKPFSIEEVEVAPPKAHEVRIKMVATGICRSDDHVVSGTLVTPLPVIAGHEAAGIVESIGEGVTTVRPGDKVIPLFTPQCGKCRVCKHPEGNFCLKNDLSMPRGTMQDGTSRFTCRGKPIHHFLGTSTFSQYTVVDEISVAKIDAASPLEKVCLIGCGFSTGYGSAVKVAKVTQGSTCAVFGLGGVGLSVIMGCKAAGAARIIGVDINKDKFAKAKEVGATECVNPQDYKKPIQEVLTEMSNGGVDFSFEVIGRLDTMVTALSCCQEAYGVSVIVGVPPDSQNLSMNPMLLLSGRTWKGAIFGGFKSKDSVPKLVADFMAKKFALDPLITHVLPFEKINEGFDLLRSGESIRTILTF

| Sequence | effect on the fibrillization of Aβ (Aβ) | percent protection against thermal aggregation of βH crystallin (βH crystallin) | percent protection against thermal aggregation of ADH (ADH) | effect on the thermal aggregation of βL crystallin (chaperone activity) (βL crystallin) | preventing the Cu+++-induced aggregation of amyloid-beta (amyloid beta (1-42)) | preventing the Cu+++ induced aggregation of amyloid-beta (amyloid beta (1-42)) | Hydrophobicity [1] | percent protection against thermal aggregation of CS (CS) | Δfluorescence (Aβ) (Aβ; ThioflavinT, 50° C. for 72 hours, no chaperone 1,324,974,048) | Δfluorescence (γD crystallin) (γD crystallin) |
| --- | --- | --- | --- | --- | --- | --- | --- | --- | --- | --- |
| DRFSVNLDVKHFS | strongest effect | approximately 30% | approximately 30% | slightly lower than the HG peptide | equally effective | less effective |  |  |  |  |
| HFSPEELK [Peptide 42] |  |  |  |  |  |  | 0.25 |  |  |  |
| HGKHEERQDE | weakest effect | No protection | No protection | strongest effect | equally effective | less effective |  | partial protection |  |  |
| LTITSSLSDGV |  | approximately 30% | approximately 30% | slightly lower than the HG peptide | equally effective | less effective |  |  | 352,301,312 | 675,352,992 |
